According to US20240010748A1:

Legend:
[1] = molecular target: human CD3 (hCD3) naturally expressed on Jurkat cells (human) (UniProt P07766); assay: FACS on Jurkat cells
[2] = molecular target: human CD3 (hCD3) naturally expressed on Jurkat cells (human) (UniProt P07766); assay: cell-based or functional assay
[3] = molecular target: human Claudin 18.2 (hCLDN18.2) on stably-transfected HEK293 cells (human) (UniProt P56856); assay: FACS on HEK293-hCLDN18.2 cells
[4] = molecular target: murine Claudin 18.2 (mCLDN18.2) on stably-transfected HEK293 cells (murine) (UniProt P56857); assay: FACS on HEK293-mCLDN18.2 cells
[5] = molecular target: Cynomolgus macaques Claudin 18 (cynoCLDN18) on stably-transfected HEK293 cells (Cynomolgus macaques); assay: FACS on HEK293-cynoCLDN18 cells

Chain of human CD3 (hCD3) naturally expressed on Jurkat cells (human) (P07766 23-207): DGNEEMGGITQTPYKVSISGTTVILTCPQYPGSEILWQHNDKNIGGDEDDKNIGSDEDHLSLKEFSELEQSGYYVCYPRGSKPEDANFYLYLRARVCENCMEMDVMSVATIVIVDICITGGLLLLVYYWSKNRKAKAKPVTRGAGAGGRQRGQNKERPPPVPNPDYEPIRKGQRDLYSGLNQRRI
Chain of human Claudin 18.2 (hCLDN18.2) on stably-transfected HEK293 cells (human) (P56856 other isoform, or with tags, fused parts or gaps limits assumed): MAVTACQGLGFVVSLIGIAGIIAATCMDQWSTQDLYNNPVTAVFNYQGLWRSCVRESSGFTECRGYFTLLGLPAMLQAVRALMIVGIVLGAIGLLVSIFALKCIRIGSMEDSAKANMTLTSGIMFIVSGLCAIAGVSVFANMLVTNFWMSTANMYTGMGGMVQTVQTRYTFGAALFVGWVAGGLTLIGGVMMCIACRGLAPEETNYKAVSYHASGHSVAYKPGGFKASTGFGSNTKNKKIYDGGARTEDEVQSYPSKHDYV

Negative-IgG1AA (antibody)
Top mean fluorescence intensity (Top MFI) [1]: 110 MFI | Jurkat-NFAT luciferase reporter, Fluorescence value (Max) [2]: 0 | Top mean fluorescence intensity (Top MFI) [3]: 359 MFI | MFI (Max) [4]: 75 MFI | MFI (Max) [5]: 136 MFI
